# Data published in patent US20200200751A1 (ECS PROGASTRIN, published 2020).
# T1: human progastrin (full length, recombinant, produced in E. coli, tag removed) (human)
# T1 construct: also called hPG; PG
# T1 chain: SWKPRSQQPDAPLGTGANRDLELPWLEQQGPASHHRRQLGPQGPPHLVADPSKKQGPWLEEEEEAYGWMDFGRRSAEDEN
# B1: mAb3 (hybridoma 6B51311C10) (antibody, V domains shown)
# VH: EVQLQQSGTVLARPGASVKMSCKASGYIFTSYWVHWVKQRPGQGLEWIGGFYPGNSDSRYNQKFKGKATLTAVTSASTAYMDLSSLTNEDSAVYFCTRRDSPQYWGQGTTLTVSS
# VL: DVLMTQTPLSLPVSLGDQASISCRSSQSIVHSNGNTYLEWYLQKPGQSPKLLIYKVSNRFSGVPDRFSGSGSGTDFTLKISRLEAEDLGVYYCFQGSHVPFTFGGGTKLEIK
# notes: Murine variable domains (mVH 3 / mVL 3) of the hybridoma antibody
# B2: mAb4 (hybridoma 20D2C3G2) (antibody, V domains shown)
# VH: QVQLQQSGAELMKPGASVKISCKATGYTFSSSWIEWLKQRPGHGLEWIGEFLPGSGSTDYNEKFKGKATFTADTSSDTAYMLLSSLTSEDSAVYYCATDGNYDWFAYWGQGTLVTVSA
# VL: DLVMTQTPLSLPVSLGDQASISCRSSQSLVHSSGVTYLHWYLQKPGQSPKLLIYKVSNRFSGVPDRFSGSGSGTDFTLKISRVEAEDLGVYFCSQSTHVPPTFGSGTKLEIK
# notes: Murine variable domains (mVH 4 / mVL 4)
# B3: mAb13 (hybridoma 2C6C3C7) (antibody, V domains shown)
# VH: EVQLVESGGGLVQPGGSLKLSCAASGFIFSSYGMSWVRQSPDRRLELVASINTFGDRTYYPDSVKGRFTISRDNAKNTLYLQMTSLKSEDTAIYYCARGTGTYWGQGTTLTVSS
# VL: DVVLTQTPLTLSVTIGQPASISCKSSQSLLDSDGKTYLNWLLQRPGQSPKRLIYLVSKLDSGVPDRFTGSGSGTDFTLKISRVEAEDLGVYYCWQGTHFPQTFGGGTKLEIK
# notes: Murine variable domains (mVH 13 / mVL 13)
# B4: mAb16 (hybridoma 1E9D9B6) (antibody, V domains shown)
# VH: QVQLQQSGAELVKPGASVKLSCKASGYTFTSYYMYWVKQRPGQGLEWIGEINPSNGGTNFNEKFKSKATLTVDKSSSTAYMQLSSLTSEDSAVYYCTRGGYYPFDYWGQGTTLTVSS
# VL: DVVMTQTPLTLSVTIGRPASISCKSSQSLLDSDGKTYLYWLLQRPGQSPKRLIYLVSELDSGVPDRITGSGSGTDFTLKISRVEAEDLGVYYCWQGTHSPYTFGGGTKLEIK
# notes: Murine variable domains (mVH 16 / mVL 16)
# Biological target: T1, human progastrin (full length, …)
# Test: epitope mapping (details not given)
row,Binder,binding result
1,B1,binds
2,B2,binds
3,B3,binds
4,B4,binds
